This data set addresses fibrin clot obtained by reacting fibrinogen with thrombin.

B1: recombinant protein HtrA2 (residues 134-458 of the HtrA2 amino acid sequence) (protein)
chain: AVPSPPPASPRSQYNFIADVVEKTAPAVVYIEILDRHPFLGREVPISNGSGFVVAADGLIVTNAHVVADRRRVRVRLLSGDTYEAVVTAVDPVADIATLRIQTKEPLPTLPLGRSADVRQGEFVVAMGSPFALQNTITSGIVSSAQRPARDLGLPQTNVEYIQTDAAIDFGNSGGPLVNLDGEVIGVNTMKVTAGISFAIPSDRLREFLHRGEKKNSSSGISGSQRRYIGVMMLTLSPSILAELQLREPSFPDVQHGVLIHKVILGSPAHRAGLRPGDVILAIGEQMVQNAEDVYEAVRTQSQLAVQIRRGRETLTLYVTPEVTE
Take B1: the A415 (dissolution of the fibrin clot, spectrophotometer, 2 mg/ml enzyme, 37 C, 24 h) was 1 ± 0.09 A415.

These data come from US20220362355.
